Common to all, as to settings: both partners purified
In test [1] the target is Recombinant full-length HA of A/California/04/09 (H1-CA09) (influenza A virus A/California/04/09, UniProt C3W5S1). Kind of test: BLI.
The target in test [2] is T1, Recombinant full-length HA of A/Vietnam/1203/04 (H5-VN04) (Influenza A virus A/Vietnam/1203/2004 …, UniProt Q5EP31). Kind of test: ELISA.
In test [3] the target is T1, Recombinant full-length HA of …. Kind of test: BLI. A general note: BLI is a label-free optical method that tracks binding on a fibre tip over time.

B1: 3I14-mHgL IgG1 (mature heavy chain, germline light chain) (antibody, V domains shown)
VH: QVQLLESGGGVVQPGRSLRLSCAASGFTFSNYGMHWVRQAPGKGLEWVAIISFDGSKKYYANSVKGRSTISRDNSKNTLSLQMNSLGPEDTALYYCAKLPSPYYFDSRFVWVAASAFHFWGQGILVTVSS
VL: not shown
Broadly, the Kd is the equilibrium constant for the complex coming apart. As usually defined, the koff is a measure of how fast the partners let go of each other. What is called kon is a measure of how fast the partners come together. Turning to B1, in test [1], the Kd is < 0.001 nM, the koff was < 1e-07 s⁻¹ and the kon is 138000 M⁻¹ s⁻¹.

B2: 39.29 scFvFc (scFv, V domains shown)
VH: VQLVESGGGVVQPGKSPRLSCAASGPTFSSYAVHWVRQAPGKGLEWVTLISYDGANQYYADSVKGRFTISRDNSKNTVYLQMNSLRPEDTAVYYCAVPGPVFGIFPPWSYFDNWGQGILVTVSS
VL: IVLTQSPATLSVSPGERATLSCRASQVISHNLAWYQQKPGQAPRLLIYGASTRASGIPARFSGSGSGTDYTLTITSLQPEDFAVYYCQHYSNWPPRLTFGGGTKVEIK
For the molecule B2, the binding result in test [2] is listed as “binds”.

B3: F10 scFvFc (scFv, V domains shown)
VH: QVQLVQSGAEVKKPGSSVKVSCTSSEVTFSSFAISWVRQAPGQGLEWLGGISPMFGTPNYAQKFQGRVTITADQSTRTAYMDLRSLRSEDTAVYYCARSPSYICSGGTCVFDHWGQGTLVTVSS
VL: QPGLTQPPSVSKGLRQTATLTCTGNSNNVGNQGAAWLQQHQGHPPKLLSYRNNDRPSGISERFSASRSGNTASLTITGLQPEDEADYYCSTWDSSLSAVVFGGGTKLTVL
On to B3, for which, in test [2], the binding result is listed as “binds”.

B4: 3I14-gHmL IgG1 (germline heavy chain, mature light chain) (antibody, V domains shown)
VH: QVQLVESGGGVVQPGRSLRLSCAASGFTFSSYGMHWVRQAPGKGLEWVAVISYDGSNKYYADSVKGRFTISRDNSKNTLYLQMNSLRAEDTAVYYCAKLPSPYYYDSRFVWVAASYFDYWGQGTLVTVSS
VL: NFMLTQPPSASGTPGQRVTISCSGSSSNIGGNTVHWFQQLPGTAPKLLIYTNSLRPSGVPDRFSGSKSGTSASLAISGLQSEDEADYYCAAWDDSLNGQVFGGGTKLTVL
With B4, in test [3], the Kd came out at 1.95 nM, the koff worked out at 0.000844 s⁻¹ and the kon amounted to 434000 M⁻¹ s⁻¹. Further, in test [1], the Kd was < 0.001 nM, the koff is < 1e-07 s⁻¹ and the kon is 155000 M⁻¹ s⁻¹.

These data come from article PMC5027281 (Nature Communications, 2016).
